Data published in the MegaScale stability set (Tsuboyama et al. 2023).

B1: 6YSE (parent)
chain: HERALMVNRLQKLTRMLRVHPDPKWKQEQQELIKRLK

Variants of: B1
Assay: folding stability dG (cDNA display proteolysis); higher = more stable
Conditions: PBS, room temperature

Folding stability dG [kcal/mol]: each site, then its substitutions
P21: H 1.57 | T 0.908 | F 2.15 | V 0.805 | K 1.04 | G 0.843 | A 1.18 | W 2.02 | L 0.688 | D 1.37 | Y 2.16 | N 1.51
Q27: K 1.46 | V 0.985 | I 1.22 | H 1.21 | N 1.09 | T 1.01 | F 1.14 | G 0.59 | A 1.6 | E 1.42 | M 1.38 | Y 0.821 | W 0.767 | R 1.23 | S 1.04 | D 0.957 | L 1.62
R18: G 0.577 | F 0.738 | N 0.669 | H 0.59 | E 0.715 | A 1.45 | W 0.417 | L 1.2 | V 0.181 | D 0.512 | T 0.657 | Q 1.19 | K 1.36 | S 0.989 | Y 0.492 | I 0.881 | M 1.29
Q29: S 0.65 | E 0.805 | C 1.52 | H 0.663 | F 1.53 | T 0.863 | Y 1.7 | R 1.47 | D -0.859 | V 1.68 | L 1.85 | A 1.48 | M 1.72 | I 1.69 | W 1.47
K24: Q 1.22 | H 0.889 | N 0.982 | F 0.828 | T 1.3 | M 1.09 | V 1.31 | A 1.24 | Y 1.13 | D 0.986 | I 1.32 | W 0.63 | S 0.97 | R 1.34 | E 1.01 | L 1.11 | G 0.85
K34: C 1.59 | G 0.802 | F 1.2 | A 1.37 | E 1.14 | D 0.366
K12: G -0.272 | T 1.3 | M 1.49 | Q 1.71 | Y 2.31 | W 2.78 | S 0.811 | F 2.26 | D 1 | L 1.53 | V 1.43 | H 1.37 | N 1.01 | R 1.3 | I 1.43
V19: Y 1.57 | K 1.55 | T 1.37 | Q 1.41 | I 1.51 | M 1.37 | D 1.13 | G 1.34 | N 1.44 | L 1.48 | A 1.21 | R 1.55 | F 1.51 | W 1.21 | H 1.38 | S 1.23 | E 1.19
E31: H 0.812 | W 1.4 | Q 0.963 | D 1.38 | N 0.839 | L 1.08 | I 1.14 | M 1.45 | T 0.995 | V 0.669 | S 0.996 | C 1.69 | Y 1.1 | R 1.15 | G 0.441 | F 1.01 | A 1.2 | K 0.805
L32: I 0.927 | Y -0.525 | M -0.196 | W -0.364 | F -0.201
M16: Y 0.489 | L 1.35 | R 0.261 | H -0.229 | F 0.018 | Q -0.015 | K 0.733 | A 0.312 | W 1.26 | I 0.699 | S -0.421
T14: S 1.03 | A 1.32 | H 0.917 | Y 1.15 | F 0.771 | I 1.35 | D 0.505 | E 1.19 | G 0.779 | Q 0.979 | L 1.13 | V 0.832 | N 1.39 | K 1.34 | R 1.3 | W 0.988 | M 1.21
